Laboratory results as given in patent US20220119492A1 (MEDIKINE, published 2022).
Bridge positions count the residues as written; N and C are the ends. Ends that are not written are not given here.

T1: human IL-2Rβ (CD122 protein, Fc Tag) (27-239) (human, UniProt P14784 27-239)
T1 construct: range 27-239; Bought protein; also called hu-IL-2Rβ subunit; IL-2Rβ subunit; not shown: Fc tag of the bought protein
T1 sequence (looked up): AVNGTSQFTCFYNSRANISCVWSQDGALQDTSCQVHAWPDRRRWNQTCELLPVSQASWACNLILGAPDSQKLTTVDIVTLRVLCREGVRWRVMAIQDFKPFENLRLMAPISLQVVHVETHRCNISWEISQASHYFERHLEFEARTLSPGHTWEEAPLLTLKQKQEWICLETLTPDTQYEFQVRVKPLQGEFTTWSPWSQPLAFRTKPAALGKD


Molecular target: T1, human IL-2Rβ (CD122 protein, Fc Tag) …
Experiment: phage ELISA competition
Summary of the method: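 Test ligands and a phage tracer competed for human IL-2Rβ-Fc in a binding ELISA, with IC50 obtained from the absorbance readings of the ligand dilution series. Without washing, 50 μL of phage tracer went on for 45 min at 4° C, and bound phage was developed with TMB for 1 to 15 min at 25° C before stop solution and absorbance at 450 nm.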

| IC50 [µM] | Binder |
| --- | --- |
| < 100 | ARTQGWYDCLFAQVGELCDL [SEQ ID NO 2772] |
| < 100 | WWPCDFAQIGELCDLGPRFTGE [SEQ ID NO 2807] |
| < 100 | WWPCWIAQVGELCDLEEESRES [SEQ ID NO 2781] |
| < 100 | SWHAETWYPCWLAQVGELCDLD [SEQ ID NO 2810] |
| < 100 | WWPCEIAQIGELCDLEWVRHAE (disulfide 4-13 (inferred)) [SEQ ID NO 2806] |
| < 100 | TGEWWPCWVAEVGELCDLERGP [SEQ ID NO 2771] |
| < 100 | HRWYPCWLAHLGELCDLDPMS [SEQ ID NO 2796] |
| < 100 | RWDYWPCYIAQVGELCDLEVYE [SEQ ID NO 2793] |
| < 100 | WWPCWIAQVGELCDLDGPGRPT [SEQ ID NO 2767] |
| < 100 | MGDSSSWFPCWMAQLGELCDME [SEQ ID NO 2789] |
| < 100 | SYMHDCFMAQVGDLCDRFIS (disulfide 6-15 (inferred)) [SEQ ID NO 2780] |
| < 100 | CYMHDCFMAQVGDLCDRFIS (not fully specified (bridges); also: disulfide between two of the three cysteines, pairing not given here) [SEQ ID NO 2827] |
| < 100 | NDHTAWWPCYFAQVGDLCDLV [SEQ ID NO 2805] |
| < 100 | EGHWYPCWIAQLGELCDLDW [SEQ ID NO 2798] |
| < 100 | SLAHRSWYPCWLAQVGELCDLD [SEQ ID NO 2794] |
| < 100 | EISNWFLDCMFADVGDLCDL [SEQ ID NO 2785] |
| < 100 | NRWWHPCWMARVGELCDLEPDA [SEQ ID NO 2777] |
| < 100 | EWFHDCFLAKVGDLCDLFLW [SEQ ID NO 2811] |
| < 100 | KWFHDCFLAKVGDLCDLFLW [SEQ ID NO 2864] |
| < 100 | ERRWYPCWLASVGELCDLDMGD [SEQ ID NO 2791] |
| < 100 | WGGRYWCWMAKLGDLCDLEDEW [SEQ ID NO 2766] |

| IC50 [µM] | Binder |
| --- | --- |
| < 100 | AGFRGRWWPCEYAQVGELCDLE [SEQ ID NO 2814] |
| < 100 | SGKTQMWNPCYVAKVGELCDLV [SEQ ID NO 2812] |
| < 100 | WWPCWIADLGELCDLEGPPRGR (disulfide 4-13 (inferred)) [SEQ ID NO 2783] |
| < 100 | MFRYYPCWIASIGELCDLEWGV (disulfide 7-16 (inferred)) [SEQ ID NO 2790] |
| < 100 | WEKLQNWYPCWIAQMGELCDLE [SEQ ID NO 2800] |
| < 100 | WTGWSAFYPCSIANLGELCDLD [SEQ ID NO 2799] |
| < 100 | SWRFLWQDCGRAHVGELCDL [SEQ ID NO 2776] |
| < 100 | WYPCEFAQLGELCDLLPFPYPA [SEQ ID NO 2779] |
| < 100 | RPPWYPCWMARLGEVCDMDIML [SEQ ID NO 2761] |
| < 100 | HQGFYSCRLARLGELCDLDTGW [SEQ ID NO 2758] |
| < 100 | QNASKGWYPCWIAHVGELCDWD [SEQ ID NO 2795] |
| < 100 | WYPCWIAQVGELCDLDEVSHGR [SEQ ID NO 2770] |
| < 100 | SQRWYPCWVAHLGELCDLEGVV [SEQ ID NO 2762] |
| < 100 | FHPCWRALLGELCDLETALGPS [SEQ ID NO 2773] |
| < 100 | DKAGPNFYPCWLAHVGELCDQA [SEQ ID NO 2813] |
| < 100 | FGGKMDWYPCWIANLGELCDLK [SEQ ID NO 2787] |
| < 100 | EPRWYPCWMAQMGELCDMEMSD (disulfide 7-16 (inferred)) [SEQ ID NO 2765] |
| < 100 | WWPCWLAQLGELCDLEVNGSLI [SEQ ID NO 2755] |
| < 100 | KGSWQPCWFAKLGELCDLHPTS [SEQ ID NO 2763] |
| < 100 | ARTWWPCWRAKLGELCDLVVPE [SEQ ID NO 2757] |
| < 100 | VDEFYPCSMAGLGELCDLERQN [SEQ ID NO 2759] |

| IC50 [µM] | Binder |
| --- | --- |
| < 100 | WRPCWMAHLGDLCDLEMANENP [SEQ ID NO 2753] |
| < 100 | TEMWYPCWMAYQGELCDLDMTY [SEQ ID NO 2756] |
| < 100 | RDWWLPCEFALIGELCDLERSW [SEQ ID NO 2808] |
| < 100 | WYPCWLAQLGEVCDLDDGGGVF [SEQ ID NO 2754] |
| < 100 | LQIRKLWACRIDLVGPFCLL (disulfide 9-18 (inferred)) [SEQ ID NO 2774] |
| < 100 | AQVWYPCWLAKVGELCDLDQWN (disulfide 7-16 (inferred)) [SEQ ID NO 2786] |
| < 100 | WYPCWVAQLGELCDLE [SEQ ID NO 2792] |
| < 100 | WYPCWVAKLGELCDLE [SEQ ID NO 2802] |
| < 100 | AWDWYPCSVAALGEICDLDIQD [SEQ ID NO 2760] |
| < 100 | PTLITWYDCLFAEVGELCDM [SEQ ID NO 2784] |
| < 100 | QTWYLPCWMAKLGELCDLGERD [SEQ ID NO 2764] |
| < 100 | WWPCWVAKLGELCDLEGDASRV [SEQ ID NO 2778] |
| < 100 | AEYSGRYDCYIAKVGELCDI [SEQ ID NO 2775] |
| < 100 | KWAWNPCYIARLGELCDLVEPE [SEQ ID NO 2782] |
| < 100 | RLVYDCLFAQVGDLCEVIS [SEQ ID NO 2768] |
| < 100 | AYYPCELAQLGELCDLYNI [SEQ ID NO 2803] |
| < 100 | FYPCWIAFVGELCDLE [SEQ ID NO 2797] |
| < 100 | WRILWMQQCWRSHVVNQCAL [SEQ ID NO 2769] |
| < 100 | TNGVLDWWPCWMAQVGELCDLD [SEQ ID NO 2801] |
| < 100 | WFPCWMAKVGDLCDVDEHQDPS [SEQ ID NO 2788] |
